# The supplement of paper PMC9112550, “Optimization of the antimicrobial peptide Bac7 by deep mutational scanning” (BMC Biology, 2022)
# Test system: Escherichia coli TOP10
# Experiment: shrunken log2 fold change of peptide-encoding DNA abundance (4.5 h post-induction vs induction); higher = less antimicrobial activity (less host growth inhibition)
# Conditions: time post-induction: 4.5 h; library: site-saturation at positions 5, 18, 19, 20
# 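Further: peptides expressed intracellularly from a pBAD plasmid library in pooled LB shake-flask culture, induced with 0.3% L-arabinose, DNA abundance read by NGS, three biological replicates, DESeq2 with apeglm shrinkage.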
row,Sequence,shrunken log2 fold change
1,RRIRYRPPRLPRPRPRPIQRPRP,-0.00865
2,RRIRVRPPRLPRPRPRPHTAPRP,-0.00836
3,RRIRMRPPRLPRPRPRPYKIPRP,-0.544
4,RRIRIRPPRLPRPRPRPTHEPRP,-0.0459
5,RRIRWRPPRLPRPRPRPPIFPRP,0.488
6,RRIRFRPPRLPRPRPRPAGEPRP,0.191
7,RRIRQRPPRLPRPRPRPEQFPRP,0.0588
8,RRIRYRPPRLPRPRPRPEYYPRP,-0.0128
9,RRIRVRPPRLPRPRPRPVMKPRP,-0.127
10,RRIRGRPPRLPRPRPRPTINPRP,0.477
11,RRIRHRPPRLPRPRPRPGVDPRP,-0.213
12,RRIRVRPPRLPRPRPRPWRSPRP,-0.0506
13,RRIRTRPPRLPRPRPRPMICPRP,-0.0677
14,RRIRTRPPRLPRPRPRPDNCPRP,0.00765
15,RRIRVRPPRLPRPRPRPNPKPRP,-0.0645
16,RRIRPRPPRLPRPRPRPAHSPRP,-0.00917
17,RRIRIRPPRLPRPRPRPDSHPRP,-0.379
18,RRIRWRPPRLPRPRPRPMSHPRP,-0.132
19,RRIRMRPPRLPRPRPRPGEKPRP,0.00581
20,RRIRNRPPRLPRPRPRPLCVPRP,-0.197
21,RRIRARPPRLPRPRPRPSPGPRP,0.284
22,RRIRNRPPRLPRPRPRPACAPRP,0.3
23,RRIRFRPPRLPRPRPRPIEHPRP,-0.215
24,RRIRARPPRLPRPRPRPINRPRP,0.0108
25,RRIRSRPPRLPRPRPRPSMYPRP,-0.286

row,Sequence,shrunken log2 fold change
1,RRIRVRPPRLPRPRPRPGQTPRP,-0.00176
2,RRIRERPPRLPRPRPRPRGHPRP,0.0666
3,RRIRQRPPRLPRPRPRPEKKPRP,-0.0138
4,RRIRDRPPRLPRPRPRPTKPPRP,-0.23
5,RRIRFRPPRLPRPRPRPKITPRP,-0.448
6,RRIRVRPPRLPRPRPRPDAMPRP,0.0806
7,RRIRERPPRLPRPRPRPRRDPRP,0.0233
8,RRIRNRPPRLPRPRPRPFYCPRP,-0.937
9,RRIRARPPRLPRPRPRPSPMPRP,0.173
10,RRIRCRPPRLPRPRPRPASCPRP,0.209
11,RRIRARPPRLPRPRPRPCLTPRP,0.158
12,RRIRMRPPRLPRPRPRPNIFPRP,-0.0848
13,RRIRQRPPRLPRPRPRPDLKPRP,-0.0178
14,RRIRDRPPRLPRPRPRPYNPPRP,-0.309
15,RRIRMRPPRLPRPRPRPDAKPRP,0.937
16,RRIRFRPPRLPRPRPRPYILPRP,-1.31
17,RRIRLRPPRLPRPRPRPTNCPRP,-0.0927
18,RRIRGRPPRLPRPRPRPKMRPRP,1.33
19,RRIRTRPPRLPRPRPRPLMQPRP,0.19
20,RRIRRRPPRLPRPRPRPKFVPRP,-0.151
21,RRIRTRPPRLPRPRPRPVYWPRP,-0.103
22,RRIRHRPPRLPRPRPRPSGEPRP,-0.03
23,RRIRCRPPRLPRPRPRPWTVPRP,-0.145
24,RRIRVRPPRLPRPRPRPHHQPRP,-0.427
25,RRIRWRPPRLPRPRPRPGPEPRP,0.809

row,Sequence,shrunken log2 fold change
1,RRIRHRPPRLPRPRPRPHWPPRP,-0.25
2,RRIRVRPPRLPRPRPRPLEDPRP,0.144
3,RRIRWRPPRLPRPRPRPGGMPRP,0.286
4,RRIRMRPPRLPRPRPRPCWNPRP,0.236
5,RRIRIRPPRLPRPRPRPPHYPRP,-0.707
6,RRIRVRPPRLPRPRPRPGDTPRP,-0.0412
7,RRIRYRPPRLPRPRPRPIKRPRP,-0.767
8,RRIRYRPPRLPRPRPRPHECPRP,0.0244
9,RRIRRRPPRLPRPRPRPICCPRP,0.213
10,RRIRFRPPRLPRPRPRPWQGPRP,0.00425
11,RRIRKRPPRLPRPRPRPQCIPRP,-0.149
12,RRIRMRPPRLPRPRPRPHYAPRP,-0.128
13,RRIRCRPPRLPRPRPRPCTMPRP,-0.725
14,RRIRRRPPRLPRPRPRPHPRPRP,1.03
15,RRIRLRPPRLPRPRPRPFNDPRP,0.0825
16,RRIRLRPPRLPRPRPRPQGIPRP,-0.0354
17,RRIRYRPPRLPRPRPRPESWPRP,-0.0403
18,RRIRQRPPRLPRPRPRPMNLPRP,-0.169
19,RRIRRRPPRLPRPRPRPPMNPRP,0.172
20,RRIRPRPPRLPRPRPRPNMNPRP,-0.584
21,RRIRIRPPRLPRPRPRPYSMPRP,-0.436
22,RRIRERPPRLPRPRPRPPWHPRP,-0.0644
23,RRIRLRPPRLPRPRPRPYQLPRP,-0.253
24,RRIRFRPPRLPRPRPRPCYQPRP,-0.229
25,RRIRDRPPRLPRPRPRPQGAPRP,0.244

row,Sequence,shrunken log2 fold change
1,RRIRARPPRLPRPRPRPQGYPRP,0.119
2,RRIRLRPPRLPRPRPRPLGYPRP,-1.79
3,RRIRLRPPRLPRPRPRPKRDPRP,0.43
4,RRIRRRPPRLPRPRPRPDIRPRP,-0.294
5,RRIRKRPPRLPRPRPRPYIPPRP,-0.651
6,RRIRWRPPRLPRPRPRPFIPPRP,-1.15
7,RRIRVRPPRLPRPRPRPPNTPRP,-0.0576
8,RRIRARPPRLPRPRPRPQQKPRP,0.153
9,RRIRPRPPRLPRPRPRPNSAPRP,0.204
10,RRIRMRPPRLPRPRPRPTLHPRP,0.294
11,RRIRFRPPRLPRPRPRPHELPRP,0.0835
12,RRIRTRPPRLPRPRPRPTSNPRP,-0.43
13,RRIRARPPRLPRPRPRPDFPPRP,0.102
14,RRIRLRPPRLPRPRPRPQMLPRP,0.0385
15,RRIRWRPPRLPRPRPRPMPHPRP,0.323
16,RRIRYRPPRLPRPRPRPFTHPRP,-0.187
17,RRIRERPPRLPRPRPRPGMWPRP,0.178
18,RRIRVRPPRLPRPRPRPTWTPRP,0.221
19,RRIRWRPPRLPRPRPRPVGDPRP,0.33
20,RRIRWRPPRLPRPRPRPKLKPRP,0.507
21,RRIRNRPPRLPRPRPRPSDPPRP,-0.192
22,RRIRYRPPRLPRPRPRPWRKPRP,-0.296
23,RRIRSRPPRLPRPRPRPVPGPRP,0.137
24,RRIRDRPPRLPRPRPRPERAPRP,0.0972
25,RRIRKRPPRLPRPRPRPHKVPRP,-0.033

row,Sequence,shrunken log2 fold change
1,RRIRGRPPRLPRPRPRPGWPPRP,1.18
2,RRIRARPPRLPRPRPRPPFPPRP,0.625
3,RRIRMRPPRLPRPRPRPLHCPRP,0.254
4,RRIRDRPPRLPRPRPRPWGAPRP,0.305
5,RRIRWRPPRLPRPRPRPWNQPRP,-0.067
6,RRIRPRPPRLPRPRPRPCEKPRP,0.0377
7,RRIRSRPPRLPRPRPRPIVNPRP,-0.259
8,RRIRFRPPRLPRPRPRPVWCPRP,-0.158
9,RRIRERPPRLPRPRPRPLLKPRP,-0.439
10,RRIRCRPPRLPRPRPRPVKVPRP,-0.181
11,RRIRHRPPRLPRPRPRPDRDPRP,-0.0136
12,RRIRCRPPRLPRPRPRPSFSPRP,-0.571
13,RRIRWRPPRLPRPRPRPGITPRP,0.0178
14,RRIRARPPRLPRPRPRPTTAPRP,0.514
15,RRIRSRPPRLPRPRPRPGGAPRP,0.574
16,RRIRKRPPRLPRPRPRPKDWPRP,0.742
17,RRIRSRPPRLPRPRPRPERLPRP,0.131
18,RRIRWRPPRLPRPRPRPWWSPRP,0.173
19,RRIRPRPPRLPRPRPRPWCHPRP,-0.563
20,RRIRERPPRLPRPRPRPQCCPRP,-0.106
21,RRIRSRPPRLPRPRPRPDCFPRP,0.103
22,RRIRNRPPRLPRPRPRPYGKPRP,-0.0718
23,RRIRKRPPRLPRPRPRPNNFPRP,-0.0233
24,RRIRCRPPRLPRPRPRPSLGPRP,-0.0171
25,RRIRGRPPRLPRPRPRPRKAPRP,0.693

row,Sequence,shrunken log2 fold change
1,RRIRCRPPRLPRPRPRPDFVPRP,-0.196
2,RRIRHRPPRLPRPRPRPFEEPRP,0.0124
3,RRIRHRPPRLPRPRPRPHYQPRP,0.0121
4,RRIRARPPRLPRPRPRPFWPPRP,0.412
5,RRIRARPPRLPRPRPRPLLIPRP,-0.0375
6,RRIRCRPPRLPRPRPRPMEEPRP,0.0671
7,RRIRPRPPRLPRPRPRPIERPRP,0.157
8,RRIRERPPRLPRPRPRPMPVPRP,-0.107
9,RRIRGRPPRLPRPRPRPFQHPRP,-0.0674
10,RRIRVRPPRLPRPRPRPVIHPRP,-0.968
11,RRIRTRPPRLPRPRPRPEADPRP,0.0868
12,RRIRCRPPRLPRPRPRPINEPRP,-0.116
13,RRIRQRPPRLPRPRPRPSYGPRP,-0.188
14,RRIRCRPPRLPRPRPRPVKMPRP,-0.248
15,RRIRYRPPRLPRPRPRPFILPRP,-1.19
16,RRIRWRPPRLPRPRPRPVCTPRP,0.26
17,RRIRCRPPRLPRPRPRPKQDPRP,0.0895
18,RRIRHRPPRLPRPRPRPFVNPRP,-0.124
19,RRIRVRPPRLPRPRPRPNAEPRP,0.0611
20,RRIRLRPPRLPRPRPRPAPLPRP,0.273
21,RRIRLRPPRLPRPRPRPWDLPRP,-0.00277
22,RRIRDRPPRLPRPRPRPTHHPRP,0.224
23,RRIRERPPRLPRPRPRPPNDPRP,-0.462
24,RRIRFRPPRLPRPRPRPKTAPRP,0.295
25,RRIRERPPRLPRPRPRPELVPRP,0.0791
